Results published in patent publication US11945858B2, “Antibodies and antibody fragments against HNAV1.7 channel and their use in pain and cancer indications” (NATIONAL RESEARCH COUNCIL OF CANADA, priority 2018, dated 2024).
Values joined by “and” are separate entries in the source; they are usually repeats but may differ in a detail not shown here. Equal entries are not always repeated. “Also recorded” adds a separate entry of the source.

B1: 1G5: mouse mAb IgG1, k binding both FC5 and DIE3IR, no effect on hNav1.7 currents; negative control; SEQ ID NO: 21 and 27 (antibody, V domains shown)
VH: QVQLQQPGAELVKPGASVKLSCKASGYTFTSYWINWVKQRPGQGLEWIGNIYPGNSNTNYNEKFKSKATLTVDKSSSTAYMQLSSLTSEDSAVYYCARRYYYDYDDAMDYWGQGTSVTVSSAKTTPPSVYPLAP
VL: DIVLTQSPASLAVSLGQRATISCRASESVDSYGNGFMHWYQQKPGQPPKLLIYRASNLESGIPARVSGSGSRTDFTLTINPVEADDVATYYCQQSNEDPWTFGGGTKLEIKRADAAPTVSIFPPSS
modifications: Heavy chain of the 1G5 and 1G9 antibodies without leader sequence; Light chain of the 1G5 and 1G9 antibodies without leader sequence

Columns and labels:
[1] = tested on: glioblastoma U87MG cells; assay: Soft agar assay, U87MG
[2] = tested on: lung metastasis of prostate cancer; settings: rat, in vivo; cited from earlier work
[3] = tested on: glioblastoma U87MGvIII cells; assay: Soft agar assay, U87MGvIII
[4] = tested on: ovarian cancer SKOV-3 cells; assay: Soft agar assay, SKOV-3
[5] = molecular target: T1, FC5DIE3IR (Homo sapiens, UniProt Q15858); assay: Surface Plasmon Resonance of mAbs, FC5DIE3IR; type: binding; settings: Fc-captured mAb, FC5-DIE3IR flowed; SCK; 25 °C
T1 construct: The supernatant was collected and loaded on a 5 ml MabSelect™ SuRe™ column; made in house; host or cells: CHO-3E7 (transient, pTT5 vector), purified from supernatant
Procedure: (§1) Surface Plasmon Resonance of mAbs. FC5 and FC5DIE3IR proteins were SEC purified using a Superdex 75 column (GE Healthcare) connected to an AKTAPurifier (GE Healthcare) in HBS-EP+ running buffer (10 mM HEPES, pH 7.4, containing 150 mM NaCl, 3 mM EDTA and 0.05% P20) at a flow rate of 1 ml/min. Monomeric eluted peaks were used to flow over Fc-capture 3A8 mAb surfaces. To prepare the 3A8 mAb surfaces, approximately 6000 RUs of anti-mouse IgG (GE Healthcare) was first immobilized on CM5 Series S sensor chips (GE Healthcare) at pH 5.0, using standard amine coupling methods previously reported (Hussack et al., 2011) and according to the manufacturer's instructions (GE Healthcare). HBS-EP running buffer used for SPR experiments. The mAb 3A8 was captured on the anti-mouse IgG surface using 10 μg/ml of mAb, 30 sec contact time and flow rate of 10 μl/min. IMAC-purified DI-D VHH was passed through a Superdex 75 (GE Healthcare) column for SEC purification in HBS-EP buffer (10 mM HEPES, pH 7.4, containing 150 mM NaCl, 3 mM EDTA and 0.005% P20), connected to an AKTAPurifier (GE Healthcare) at a flow rate of 1 ml/min. Test binding experiments of FC5 control and FC5DIE3IR involved flowing 1 μM concentrations of SEC-pure material over the mAb surface at a flow rate of 30 μl/min for 5 min. Surfaces could be regenerated using 10 mM glycine, pH 1.7, with a 120 sec pulse at 20 μl/min. All SPR experiments were evaluated with Biacore T200 Software v 3.0. For kinetic analysis, single cycle kinetic analysis was used by flowing a range of FC5DIE3IR concentrations (320 nM-20 nM) at a flow rate of 30 μl/min, with 600 sec contact time and 1200 sec dissociation. Regeneration conditions were the same as above. Data were fit to a 1:1 binding model and analyzed using the Biacore T200 Software v3.0.
(§2) Surfaces were regenerated by washing with running buffer (HBS-EP). Data were analyzed with BIAevaluation 4.1 software as described (Hussack et al., 2011) and affinities determined using the steady state binding model.
(§3) Surface Plasmon Resonance (SPR) for monoclonal antibodies.

[6] = tested on: CHO-3E7; assay: Cell-ELISA on live CHO-3E7 cells; type: cell-based, Chinese hamster; settings: hybridoma supernatant; OD450 nm; duplicate 1
Procedure: Cell-ELISA. Sterile 96-well plates (Costar #3595) were pre-treated with 50 μl/well of branched polyethyleneimine (PEI, Sigma Cat #408727) at 25 μg/ml in PBS for 30 min at room temperature. PEI was removed and CHO-3E7 or hNAv1.7-CHO (ChanTest cat #CT4003) were seeded at 6×10^5 cells per well in FreeStyle F17 Expression Medium (Gibco Cat #A1383501) and incubated overnight at 37° C., 5% CO2. Microplates were blocked with Starting block (Thermofisher Cat #37538) for 30 min at room temperature, and 50 μl of hybridoma supernatants were added and incubated at 4° C. for 3 h. Plates were washed 5 times with PBS and incubated for one hour at 4° C. with 50 μl of secondary antibody HRP-conjugated F(ab′)2 goat anti-mouse IgG (H+L) (Jackson Immunoresearch #115-036-062) diluted 1/5000 in blocking buffer. After 10 washes with PBS, 50 μl of TMB substrate solution (Pierce Cat #34021) was added and further incubated for 60 min at room temperature. Twenty-five μl/well of stop solution ([…] 1M) was added and OD450 nm measurements were done using a microplate reader (Spectramax 340 PC, Molecular Devices).

[7] = tested on: VHH FC5; assay: Surface Plasmon Resonance of mAbs, FC5 control; type: binding; settings: 25 °C
Sequence of VHH FC5 (as listed by the source): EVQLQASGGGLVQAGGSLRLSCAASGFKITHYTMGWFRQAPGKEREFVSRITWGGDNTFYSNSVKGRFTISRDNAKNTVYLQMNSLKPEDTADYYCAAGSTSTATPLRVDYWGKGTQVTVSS
Procedure: as §1, §2, §3

[8] = molecular target: T1, FC5DIE3IR; assay: Hydrogen-Deuterium Exchange Mass Spectrometry (HDX-MS); type: binding; settings: labelling 1, 10 and 60 min
[9] = molecular target: hNav1.7 channels (Homo sapiens, UniProt Q15858, W1161R); assay: Patch-clamp whole-cell recordings in hNav1.7-HEK293 cells; type: cell-based; settings: example recordings; 1-3 μM
[10] = molecular target: T1, FC5DIE3IR; assay: Evaluation of apparent affinity of purified mAbs in ELISA; type: binding; settings: purified mAb, OD 405 nm
Procedure: Screening. Hybridoma supernatants were screened by ELISA to detect specific binders. To this end, 96-well half-area plates (Costar #3690) were coated with 25 μl of FC5DIE3IR or FC5-VHH or FC5-hFc-1X0 at 5 μg/ml in PBS and incubated overnight at 4° C. Microplates were washed 3 times with PBS, blocked with PBS-BSA 1%, and 25 μl of hybridoma supernatants were added and incubated at 37° C., 5% CO2 for 2 hours. Plates were washed 4 times with PBS-Tween 20 0.05% and incubated for one hour at 37° C., 5% CO2 with 25 μl of secondary antibody alkaline phosphatase conjugated F(ab′)2 goat anti-mouse IgG Fc-gamma specific (Jackson Immunoresearch #115-056-071) diluted 1/3000 in blocking buffer. After 4 washes with PBS-Tween 20 0.05%, 25 μl of a 1 mg/ml pNPP substrate solution was added and further incubated for one hour at 37° C. OD405 nm measurements were done using a microplate reader (Spectramax 340 PC, Molecular Devices).
Evaluation of apparent affinity in ELISA. Purified antibodies were assessed for their binding activity by ELISA in a dose-dependent binding curve. […] The data were analyzed with GraphPad Prism software using one-site specific binding-with Hill slope non-linear regression curve fit model to determine Bmax (maximum specific binding) and Kdapp (concentration needed to achieve a half-maximum binding at equilibrium) for each mAb tested. […]

| Molecule | Reduction of colony formation [1] | Reduction of the number of lung metastasis [2] [%] | Reduction of colony formation [3] [%] | Reduction of colony formation [4] [%] | ka [5] [M⁻¹ s⁻¹] | kd [5] [s⁻¹] | ELISA on live cells (duplicates) CHO-3E7 [6] | Binding to FC5 control (comment, in words) ([7]; SPR) | ka ([7]; target FC5) [M⁻¹ s⁻¹] | kd ([7]; target FC5) [s⁻¹] | Stabilization of FC5DIE3IR in response to mAb binding (residues, differential HDX-MS) [8] | Effect on hNav1.7 currents (in words) [9] | Bmax (maximum specific binding) [10] |
| --- | --- | --- | --- | --- | --- | --- | --- | --- | --- | --- | --- | --- | --- |
| NC1=N[C@H](O)[C@H]2[C@H]3O[C@]4(O)O[C@@H]([C@@H](O)[C@@]2(N1)[C@@H]4O)[C@]3(O)CO [TTX, tetrodotoxin, reference compound] | 75% and 84% | > 40 | 55 | 70 | – | – | – | – | – | – | – | – | – |
| B1 | – | – | – | – | 72900 | 0.0136 | 0.008 | Binding to both | 289000 | 0.017 | no effect on conformational stability | no effect; also recorded: did not reduce hNav1.7 currents | 1.7 |
